Measurements from patent publication US20220220508, “ENGINEERED CASX SYSTEMS” (Scribe Therapeutics Inc., published 2022).

T1: CasX 488
T1 chain: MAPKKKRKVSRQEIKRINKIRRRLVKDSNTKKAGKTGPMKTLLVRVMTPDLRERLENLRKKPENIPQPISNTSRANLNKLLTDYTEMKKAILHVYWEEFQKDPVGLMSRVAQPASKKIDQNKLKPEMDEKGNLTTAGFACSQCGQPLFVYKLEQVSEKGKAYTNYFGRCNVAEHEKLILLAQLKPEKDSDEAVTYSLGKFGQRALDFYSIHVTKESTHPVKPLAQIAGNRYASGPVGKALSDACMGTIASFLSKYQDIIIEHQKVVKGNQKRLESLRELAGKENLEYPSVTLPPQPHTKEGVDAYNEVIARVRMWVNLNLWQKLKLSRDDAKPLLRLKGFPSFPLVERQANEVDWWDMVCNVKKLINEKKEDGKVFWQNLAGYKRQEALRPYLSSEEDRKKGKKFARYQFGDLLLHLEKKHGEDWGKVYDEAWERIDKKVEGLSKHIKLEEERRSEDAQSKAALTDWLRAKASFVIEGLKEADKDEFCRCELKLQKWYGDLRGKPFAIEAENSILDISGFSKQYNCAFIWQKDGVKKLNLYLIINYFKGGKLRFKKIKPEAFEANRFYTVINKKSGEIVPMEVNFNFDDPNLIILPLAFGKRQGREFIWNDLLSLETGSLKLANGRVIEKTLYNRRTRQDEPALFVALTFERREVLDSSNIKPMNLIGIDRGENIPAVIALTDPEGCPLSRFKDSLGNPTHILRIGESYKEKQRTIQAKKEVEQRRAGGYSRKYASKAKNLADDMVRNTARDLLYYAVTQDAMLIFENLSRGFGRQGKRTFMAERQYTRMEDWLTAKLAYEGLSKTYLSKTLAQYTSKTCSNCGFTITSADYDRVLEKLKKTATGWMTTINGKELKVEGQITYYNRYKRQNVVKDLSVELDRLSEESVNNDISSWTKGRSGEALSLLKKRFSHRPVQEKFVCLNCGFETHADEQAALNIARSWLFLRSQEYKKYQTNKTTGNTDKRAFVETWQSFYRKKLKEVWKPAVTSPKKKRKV

T2: CasX 491
T2 chain: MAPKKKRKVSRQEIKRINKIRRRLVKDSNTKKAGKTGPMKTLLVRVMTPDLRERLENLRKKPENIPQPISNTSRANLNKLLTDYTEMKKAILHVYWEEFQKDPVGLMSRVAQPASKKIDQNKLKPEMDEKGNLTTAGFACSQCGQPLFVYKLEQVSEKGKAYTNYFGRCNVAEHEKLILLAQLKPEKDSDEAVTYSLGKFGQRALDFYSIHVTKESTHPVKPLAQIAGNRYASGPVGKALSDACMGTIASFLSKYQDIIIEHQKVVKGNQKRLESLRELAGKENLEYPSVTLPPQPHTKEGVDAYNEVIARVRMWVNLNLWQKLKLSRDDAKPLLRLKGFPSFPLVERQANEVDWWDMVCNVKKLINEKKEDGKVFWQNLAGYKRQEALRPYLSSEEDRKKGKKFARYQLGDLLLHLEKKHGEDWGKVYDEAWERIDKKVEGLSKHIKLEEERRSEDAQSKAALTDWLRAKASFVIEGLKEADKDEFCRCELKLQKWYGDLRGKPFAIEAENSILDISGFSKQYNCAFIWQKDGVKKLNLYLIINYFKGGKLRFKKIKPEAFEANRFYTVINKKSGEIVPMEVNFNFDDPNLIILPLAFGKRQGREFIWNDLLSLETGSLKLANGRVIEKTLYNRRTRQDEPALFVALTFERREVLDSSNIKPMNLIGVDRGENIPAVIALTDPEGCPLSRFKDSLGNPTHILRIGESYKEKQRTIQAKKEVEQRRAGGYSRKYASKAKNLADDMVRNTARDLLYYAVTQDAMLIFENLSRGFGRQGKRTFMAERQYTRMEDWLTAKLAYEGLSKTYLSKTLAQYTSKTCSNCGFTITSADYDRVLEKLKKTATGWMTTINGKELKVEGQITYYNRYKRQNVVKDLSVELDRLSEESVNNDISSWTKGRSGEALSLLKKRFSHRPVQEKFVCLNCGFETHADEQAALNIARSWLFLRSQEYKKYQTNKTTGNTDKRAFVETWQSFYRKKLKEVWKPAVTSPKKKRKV

T3: CasX 438 (in cells) (Planctomycetes)
T3 chain: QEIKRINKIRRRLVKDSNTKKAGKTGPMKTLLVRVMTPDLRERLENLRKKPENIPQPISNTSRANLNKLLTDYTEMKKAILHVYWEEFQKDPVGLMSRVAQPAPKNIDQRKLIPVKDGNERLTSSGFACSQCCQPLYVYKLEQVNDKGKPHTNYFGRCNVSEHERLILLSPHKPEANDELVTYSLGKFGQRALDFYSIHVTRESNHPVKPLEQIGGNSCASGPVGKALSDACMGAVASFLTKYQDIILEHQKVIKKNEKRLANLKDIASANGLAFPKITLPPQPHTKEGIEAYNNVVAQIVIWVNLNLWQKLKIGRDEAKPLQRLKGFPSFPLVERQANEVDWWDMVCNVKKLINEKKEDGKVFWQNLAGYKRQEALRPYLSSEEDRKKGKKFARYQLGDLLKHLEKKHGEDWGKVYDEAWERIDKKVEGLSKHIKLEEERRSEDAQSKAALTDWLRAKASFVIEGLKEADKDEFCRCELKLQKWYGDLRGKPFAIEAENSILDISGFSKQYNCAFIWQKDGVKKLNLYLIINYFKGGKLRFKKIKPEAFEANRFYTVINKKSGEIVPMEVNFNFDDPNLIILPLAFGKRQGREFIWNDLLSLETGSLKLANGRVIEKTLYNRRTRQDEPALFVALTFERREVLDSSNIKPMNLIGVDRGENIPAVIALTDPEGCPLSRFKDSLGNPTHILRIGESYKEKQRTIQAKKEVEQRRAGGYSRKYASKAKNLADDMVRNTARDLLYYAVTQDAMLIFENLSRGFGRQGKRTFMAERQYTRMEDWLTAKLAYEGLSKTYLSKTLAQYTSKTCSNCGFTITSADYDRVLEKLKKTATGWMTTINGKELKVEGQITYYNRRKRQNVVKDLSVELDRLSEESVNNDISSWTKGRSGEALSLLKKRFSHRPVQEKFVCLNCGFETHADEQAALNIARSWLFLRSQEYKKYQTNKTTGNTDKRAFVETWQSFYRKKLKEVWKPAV


Experiments:
[1] = target: CasX 438 (Planctomycetes); assay: cleavage_in_vitro; kcleave; TTC PAM; details: tags: N-terminal SV40 NLS, C-terminal NLS, TEV site and twin Strep tag; label: fluorescent
Sequence of CasX 438 (Planctomycetes) (chain, as listed by the source): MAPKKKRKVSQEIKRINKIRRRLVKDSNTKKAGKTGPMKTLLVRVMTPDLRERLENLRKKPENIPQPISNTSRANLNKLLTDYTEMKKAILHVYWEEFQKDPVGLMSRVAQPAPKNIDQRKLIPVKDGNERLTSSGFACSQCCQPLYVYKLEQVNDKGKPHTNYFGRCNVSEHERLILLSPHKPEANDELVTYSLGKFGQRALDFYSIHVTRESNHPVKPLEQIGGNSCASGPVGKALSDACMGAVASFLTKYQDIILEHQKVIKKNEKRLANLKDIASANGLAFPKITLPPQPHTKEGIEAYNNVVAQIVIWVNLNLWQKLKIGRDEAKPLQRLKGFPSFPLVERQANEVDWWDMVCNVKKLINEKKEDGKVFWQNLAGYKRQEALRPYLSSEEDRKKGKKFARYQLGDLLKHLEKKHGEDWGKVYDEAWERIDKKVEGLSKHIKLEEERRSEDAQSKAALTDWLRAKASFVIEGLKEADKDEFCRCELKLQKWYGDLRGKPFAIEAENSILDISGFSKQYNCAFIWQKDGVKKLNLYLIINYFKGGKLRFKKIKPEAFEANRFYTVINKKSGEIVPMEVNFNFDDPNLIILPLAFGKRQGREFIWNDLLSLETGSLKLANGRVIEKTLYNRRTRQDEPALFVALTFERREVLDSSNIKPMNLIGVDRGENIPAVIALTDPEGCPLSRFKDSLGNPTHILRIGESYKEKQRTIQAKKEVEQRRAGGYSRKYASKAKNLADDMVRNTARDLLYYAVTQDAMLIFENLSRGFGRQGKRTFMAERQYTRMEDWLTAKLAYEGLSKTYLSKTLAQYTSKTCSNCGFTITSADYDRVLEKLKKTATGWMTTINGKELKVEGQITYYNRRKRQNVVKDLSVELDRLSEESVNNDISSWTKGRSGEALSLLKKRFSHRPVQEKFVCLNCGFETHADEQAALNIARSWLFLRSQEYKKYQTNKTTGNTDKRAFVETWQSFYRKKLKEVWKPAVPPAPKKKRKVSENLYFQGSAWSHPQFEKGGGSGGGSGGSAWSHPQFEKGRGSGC
Experimental: (§1) In vitro cleavage assays were performed essentially as described in Example 19, using CasX 2 (SED ID NO:2), CasX 119, and CasX 438 complexed with single guide 174 with spacer 7.37 targeted against B2M. Fluorescently labeled dsDNA targets that would be complementary with a 7.37 spacer and either a ITC, CTC, CTC, or ATC PAM were used (The DNA sequences used to generate each dsDNA substrate are shown in Table 29. The PAM sequences for each are bolded. TS—target strand. NTS—Non-target strand). Target DNA was incubated with a 20-fold excess of the indicated RNP and the amount of cleaved target was determined at the indicated. time points. The monophasic fit of the combined replicates is shown. During the assay, samples were taken at 0.25, 0.5, 1, 2, 5, 10, 30, and 60 minutes. Gels were imaged with an Amersham Typhoon and quantified using the IQTL 8,2 software. Apparent first-order rate constants for non-target strand cleavage (kcleave) were determined for each Casx:sgRNA complex on each target. Rate constants for targets with non-TTC PAM were compared to the TIC PAM target to determine whether the relative preference for each PAM was altered for a given CasX variant. The results are shown in FIG. 73 (the monophasic fit of the combined replicates is shown) and Table 30. […]

[2] = target: CasX 119 (L379R+A708K+[P793]) (Planctomycetes); assay: cleavage_in_vitro; kcleave; TTC PAM; details: tags: N-terminal SV40 NLS, C-terminal NLS, TEV site and twin Strep tag; label: fluorescent
Sequence of CasX 119 (L379R+A708K+[P793]) (Planctomycetes) (chain, as listed by the source L379R A708K L379R A708K): as the sequence (chain, as listed by the source) above, with L408F, K413L, V667I, R865Y counted along it
Experimental: as §1

[3] = target: T1, CasX 488; assay: cell_activity; lentiviral iGFP editing; TTC PAM
[4] = target: T2, CasX 491; assay: cell_activity; lentiviral iGFP editing; TTC PAM
[5] = target: T3, CasX 438 (in cells); assay: cell_activity; lentiviral iGFP editing; TTC PAM

Row | Binder | activity [1] [min⁻¹] | activity [2] [min⁻¹] | binding signal [3] [fold vs CasX 119] | binding signal [4] [fold vs CasX 119] | binding signal [5] [fold vs CasX 119]
1 | sgRNA 174.7.37 ; 7.37 TTC PAM target (ssRNA ; dsDNA) RNA: ACUGGCGCUUUUAUCUGAUUACUUUGAGAGCCAUCACCAGCGACUAUGUCGUAGUGGGUAAAGCUCCCUCUUCGGAGGGAGCAUCAAAGGGCCGAGAUGUCUCGCUCCG DNA 1: TGAAGCTGACAGCATTCGGGCCGAGATGTCTCGCTCCGTGGCCTTAGCTGTGCTCGCGCT DNA 2: AGCGCGAGCACAGCTAAGGCCACGGAGCGAGACATCTCGGCCCGAATGCTGTCAGCTTCA | 4.94 | 8.33 | – | – | –
2 | scaffold 174 + spacer 4.76 ; EGFP E6/4.76 target (ssRNA ; dsDNA) RNA: ACUGGCGCUUUUAUCUGAUUACUUUGAGAGCCAUCACCAGCGACUAUGUCGUAGUGGGUAAAGCUCCCUCUUCGGAGGGAGCAUCAAAGUGUGGUCGGGGUAGCGGCUG DNA 1: TGTGGTCGGGGTAGCGGCTG DNA 2: CAGCCGCTACCCCGACCACA | – | – | 1.41 | 1.55 | 1.22
3 | scaffold 174 + spacer 4.77 ; EGFP E7/4.77 target (ssRNA ; dsDNA) RNA: ACUGGCGCUUUUAUCUGAUUACUUUGAGAGCCAUCACCAGCGACUAUGUCGUAGUGGGUAAAGCUCCCUCUUCGGAGGGAGCAUCAAAGUCAAGUCCGCCAUGCCCGAA DNA 1: TCAAGTCCGCCATGCCCGAA DNA 2: TTCGGGCATGGCGGACTTGA | – | – | 2.43 | 3.03 | –
